Stoichiometry N data for 2 substances are collected here from publication PMC11575404.

Test [1] deals with SARS-CoV-2 N protein truncation NΔN180, Myc-tagged (SARS-CoV-2) (UniProt P0DTC9). Kind of test: cross-linking.
The target of test [2] is SARS-CoV-2 N protein truncation NΔN247, Myc-tagged (SARS-CoV-2) (UniProt P0DTC9). Description: cross-linking.

The substance “SARS-CoV-2 N protein truncation NΔN180, Myc-tagged (from UniProt P0DTC9 181-419) (domain or fragment)” gave a stoichiometry N in test [1] of 2.

In test [2], “SARS-CoV-2 N protein truncation NΔN247, Myc-tagged (from UniProt P0DTC9 248-419) (domain or fragment)” returned a stoichiometry N of 2.

One may read the stoichiometry N as the number of molecules, sites or subunits per partner or assembly.
